Experimental findings from article PMC2936275 (Biochemistry, 2010) are described below.

In general, EC50 refers to the concentration at which the effect is half-maximal. Read a low EC50 as a more potent agent. One may read the Kd as the concentration at which binding is half-saturated. A lower Kd goes with a tighter complex.

The test concerns the target ONE-GC fragment aa 836-1110 (UniProt P51839 836-1110). The test is described as follows: SPR. A general note: SPR reads the build-up and loss of mass on a sensor chip optically.

“And” between values parts separate entries of the source, which are not always exact repeats. Equal values may be shown once.

ONE-GC fragment aa 836-1110, sequence (P51839 836-1110): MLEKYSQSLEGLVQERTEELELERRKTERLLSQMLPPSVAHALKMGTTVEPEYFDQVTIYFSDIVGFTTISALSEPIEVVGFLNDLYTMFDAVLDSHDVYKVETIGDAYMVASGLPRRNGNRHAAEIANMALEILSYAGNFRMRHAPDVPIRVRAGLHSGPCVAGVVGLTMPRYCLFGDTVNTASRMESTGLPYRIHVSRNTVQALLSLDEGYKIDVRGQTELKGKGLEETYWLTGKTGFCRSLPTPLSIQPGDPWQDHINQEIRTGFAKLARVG

B1: GCAP1 (guanylate cyclase activating protein 1), purified recombinant (natural protein, UniProt P46065 1-205, looked up)
chain: MGNIMDGKSVEELSSTECHQWYKKFMTECPSGQLTLYEFRQFFGLKNLSPWASQYVEQMFETFDFNKDGYIDFMEYVAALSLVLKGKVEQKLRWYFKLYDVDGNGCIDRDELLTIIRAIRAINPCSDSTMTAEEFTDTVFSKIDVNGDGELSLEEFMEGVQKDQMLLDTLTRSLDLTRIVRRLQNGEQDEEGASGRETEAAEADG
As for B1, the concentration for a half-maximal effect (EC50) turned out to be 0.5 µM; the equilibrium dissociation constant (Kd) was 0.65 µM and 0.67 µM.
